Reference: the RNAGym collection of RNA variant scans (doi:10.7554/elife.80360)

B1: HDV Ribozyme (parent)
chain: GGCCGGCAUGGUCCCAGCCUCCUCGCUGGCGCCGGCUGGGCAACAUUCCGAGGGGACCGUCCCCUCGGUAAUGGCGAAUGGGACCCA

Variants of: B1
Test: self-cleavage, relative activity (ratio to wild type); higher = more cleavage; co-transcriptional

Variant | self-cleavage
GGCCGGCAUGGUCCCAGCCUCCUCGCUGGCGACGGCUGGGCAACAUUCCGAGGGGACCGUCCCCUCGGUAAUGGCGAUUGGGACCCA [C32A A78U] | 0.0923
GGCCGGCAUGGUCCCAGCCUCCUCGCUGGCGACGGCUGGGCAACAUUCCAAGGGGACCGUCCCCUCGGUAAUGGCGAAUGGGACCCA [C32A G50A] | 0.136
GGCCGGCAUGGUCCCAGCCUCCUCGCUGGCGACGGCUGGGCAACAUUCCCAGGGGACCGUCCCCUCGGUAAUGGCGAAUGGGACCCA [C32A G50C] | 0.262
GGCCGGCAUGGUCCCAGCCUCCUCGCUGGCGACGGCUGGACAACAUUCCGAGGGGACCGUCCCCUCGGUAAUGGCGAAUGGGACCCA [C32A G40A] | 0.242
GGCCGGCAUGGUCCCAGCCUCCUCGCUGGCGACGGCUGGGCAACAUUCCGAGGGGACCGUCCCCUCGGUAUUGGCGAAUGGGACCCA [C32A A71U] | 0.222
GGCCGGCAUGGUCCCAGCCUCCUCGCUGGCGACGGCUGGGCAACAUUCCGAGGGGACCGUCCCUUCGGUAAUGGCGAAUGGGACCCA [C32A C64U] | 0.175
GGCCGGCAUGGUCCCAGCCUCCUCGCUGGCGACGGCUGGGCAACAUUCCGAGGGGACCGUCCCCUCGGUAAUGGCGAAUGGGAUCCA [C32A C84U] | 0.0536
GGCCGGCAUGGUCCCAGCCUCCUCGCUGGCGACGGCUGGGCAACAUUCCGAGGGGACCGUCUCCUCGGUAAUGGCGAAUGGGACCCA [C32A C62U] | 0.341
GGCCGGCAUGGUCCCAGCCUCCUCGCUGGCGACGGCUGGGCAACAUUCCGAGGGGACCGUCGCCUCGGUAAUGGCGAAUGGGACCCA [C32A C62G] | 0.0489
GGCCGGCAUGGUCCCAGCCUCCUCGCUGGCGGCGGCUGGGCAACAUUCCGAGGGGACCGUCCCCUUGGUAAUGGCGAAUGGGACCCA [C32G C66U] | 0.162
GGCCGGCAUGGUCCCAGCCUCCUCGCUGGCGACGGCUGGGCAACAUUCCGAGGGGACCGUCCCCUUGGUAAUGGCGAAUGGGACCCA [C32A C66U] | 0.315
GGCCGGCAUGGUCCCAGCCUCCUCGCUGGCGACGGCUGGGCAACAUUCCGAGGGGACCGUCCCCUCGUUAAUGGCGAAUGGGACCCA [C32A G68U] | 0.0906
GGCCGGCAUGGUCCCAGCCUCCUCGCUGGCGACGGCUGGGCAACAUUCCGAGGGGACCGUCCCCUCGCUAAUGGCGAAUGGGACCCA [C32A G68C] | 0.113
GGCCGGCAUGGUCCCAGCCUCCUCGCUGGCGACGGCUGGGCAACAUUCCGAGGGGACCGUCCCCUCUGUAAUGGCGAAUGGGACCCA [C32A G67U] | 0.232
GGCCGGCAUGGUCCCAGCCUCCUCGCUGGCGGCGGCUGGGCGACAUUCCGAGGGGACCGUCCCCUCGGUAAUGGCGAAUGGGACCCA [C32G A42G] | 0.0426
GGCCGGCAUGGUCCCAGCCUCCUCGCUGGCGGCGGCUGGGCUACAUUCCGAGGGGACCGUCCCCUCGGUAAUGGCGAAUGGGACCCA [C32G A42U] | 0.0594

Variant | self-cleavage
GGCCGGCAUGGUCCCAGCCUCCUCGCUGGCGGCGGCUGGGGAACAUUCCGAGGGGACCGUCCCCUCGGUAAUGGCGAAUGGGACCCA [C32G C41G] | 0.0665
GGCCGGCAUGGUCCCAGCCUCCUCGCUGGCGGCGGCUGGGCACCAUUCCGAGGGGACCGUCCCCUCGGUAAUGGCGAAUGGGACCCA [C32G A43C] | 0.0536
GGCCGGCAUGGUCCCAGCCUCCUCGCUGGCGGCGGCUGGGCAUCAUUCCGAGGGGACCGUCCCCUCGGUAAUGGCGAAUGGGACCCA [C32G A43U] | 0
GGCCGGCAUGGUCCCAGCCUCCUCGCUGGCGGCGGCUGGGCAACAUUCCGAGGGGACCGUCCCCUCGGUAAUGGCGAAUGGGACCCA [C32G] | 0.103
GGCCGGCAUGGUCCCAGCCUCCUCGCUGGCGGCGGCUGGGCAACAUUCCGAGGGGAUCGUCCCCUCGGUAAUGGCGAAUGGGACCCA [C32G C57U] | 0.0702
GGCCGGCAUGGUCCCAGCCUCCUCGCUGGCGGCGGCUGGGCAACGUUCCGAGGGGACCGUCCCCUCGGUAAUGGCGAAUGGGACCCA [C32G A45G] | 0.0811
GGCCGGCAUGGUCCCAGCCUCCUCGCUGGCGGCGGCUGGGCAACUUUCCGAGGGGACCGUCCCCUCGGUAAUGGCGAAUGGGACCCA [C32G A45U] | 0.142
GGCCGGCAUGGUCCCAGCCUCCUCGCUGGCGACGGCUGGGCAACAUUCCGAGGGGACCGUCCCCUCGGUAAUGGCGAAUGGGGCCCA [C32A A83G] | 0.152
GGCCGGCAUGGUCCCAGCCUCCUCGCUGGCGACGGCUGGGCAACAUUGCGAGGGGACCGUCCCCUCGGUAAUGGCGAAUGGGACCCA [C32A C48G] | 0.0462
GGCCGGCAUGGUCCCAGCCUCCUCGCUGGCGACGGCUGGGCAACAUUCCGAGGGGACCCUCCCCUCGGUAAUGGCGAAUGGGACCCA [C32A G59C] | 0.271
GGCCGGCAUGGUCCCAGCCUCCUCGCUGGCGACGGCUGGGCAACAUUCCGAGGGGACCAUCCCCUCGGUAAUGGCGAAUGGGACCCA [C32A G59A] | 0.373
GGCCGGCAUGGUCCCAGCCUCCUCGCUGGCGACGUCUGGGCAACAUUCCGAGGGGACCGUCCCCUCGGUAAUGGCGAAUGGGACCCA [C32A G35U] | 0.157
GGCCGGCAUGGUCCCAGCCUCCUCGCUGGCGACGGCUGGGCAACAUUCCGAGGGGACCGUUCCCUCGGUAAUGGCGAAUGGGACCCA [C32A C61U] | 0.201
GGCCGGCAUGGUCCCAGCCUCCUCGCUGGCGACGGCUGGGCAACAUUCCGAGGGGACCGUACCCUCGGUAAUGGCGAAUGGGACCCA [C32A C61A] | 0.162
GGCCGGCAUGGUCCCAGCCUCCUCGCUGGCGACGGCUGGGCAACAUUCCGAGGGGACCGUGCCCUCGGUAAUGGCGAAUGGGACCCA [C32A C61G] | 0.248
GGCCGGCAUGGUCCCAGCCUCCUCGCUGGCGACGGCUGGGCAACAUUCCGAGGGGACCGUCCCCUCGGUGAUGGCGAAUGGGACCCA [C32A A70G] | 0.285
